Test [1] has as its target Mouse LRP-8 expressed on HEK293 cells (mouse) (UniProt Q924X6). The test can be described thus: cell-based MSD binding assay on 293H-mLRP8 cells; curve label LRP8-11H1.
The target is the same in test [2]. The test can be described thus: mLRP8 cell binding.
The target is the same in test [3]. Nature of the test: FACS, mouse LRP8 cells.
For test [4] the target is unchanged. Nature of the test: mLRP8 cell binding; chimeric VL / chimeric VH.
The target is the same in test [5]. The test can be described thus: cell-based binding assay, mLRP8.
Test [6] shares this target. The test can be described thus: cell-based MSD binding assay on 293H-mLRP8 cells; curve label 11H1-15.
Test [7] has the same target. Nature of the test: cell-based MSD binding assay on 293H-mLRP8 cells; curve label 11H1-16, no plateau up to about 600 nM.
Test [8] has the same target. The test can be described thus: cell-based MSD binding assay on 293H-mLRP8 cells; curve label 11H1-18.
For test [9] the target is unchanged. The test can be described thus: cell-based MSD binding assay on 293H-mLRP8 cells; curve label 11H1-17.
Test [10] has the same target. The test can be described thus: cell-based MSD binding assay on 293H-mLRP8 cells; curve label 11H1-19.
Test [11] has the same target. The test can be described thus: cell-based MSD binding assay on 293H-mLRP8 cells; curve label 11H1-21, no plateau up to about 600 nM.
Test [12] has the same target. Nature of the test: cell-based MSD binding assay on 293H-mLRP8 cells; curve label 11H1-20.
For test [13] the target is unchanged. The test can be described thus: cell-based MSD, 1 to 25, mouse-LRP8-HEK293.
For test [14] the target is unchanged. Nature of the test: cell-based binding on MOUSE LRP8-HEK293, supernatant 1:25.
The target is the same in test [15]. Nature of the test: cell-based binding on MOUSE LRP8-HEK293, supernatant 1:5.
Test [16] has the same target. Nature of the test: cell-based binding on MOUSE LRP8-HEK293, supernatant 1:125.
Test [17] has the same target. The test can be described thus: cell-based MSD, 1 to 125, mouse-LRP8-HEK293.
Test [18] shares this target. Nature of the test: cell-based MSD, 1 to 5, mouse-LRP8-HEK293.
Test [19] has the same target. Nature of the test: fit of the FACS titration of FIG. 12A on mLRP8-transfected HEK293 cells; the column head prints EC50 only, nM is from legend paragraph 78 and the axis of FIG. 12A.
For test [20] the target is unchanged. The test can be described thus: cell-based MSD-ECL binding on cells overexpressing mouse LRP-8 variant 1 (mLRP8 assay); curve without plateau up to 10000 ng/ml.

This is an account of results in US20160200813A1.

B1: humanized ML199-11H1.5B2VH.1/VL.1a (antibody, V domains shown)
VH: EVQLVESGGGLVKPGGSLRLSCAASRFTFSNYGMSWVRQAPGKGLEWVSTISSGGRYTYYPDSVKGRFTISRDNAKNSLYLQMNSLRAEDTAVYYCARDYLYAMDYWGQGTTVTVSS
VL: DVVMTQSPLSLPVTPGEPASISCRSSQSLVYSNGNTYLHWYLQKPGQSPQVLMYKVSNRFSGVPDRFSGSGSGTDFTLKISRVEAEDVGVYFCSQSTHVPLTFGQGTKLEIK
In the case of B1, the EC50 came out at 0.3 nM in [1] and 13.4 nM in test [2].

B2: chimeric anti-LRP-8 ML199.11H1.5B2 antibody [mu/hu IgG1/k] LALA (antibody, V domains shown)
VH: EVQLVESGGDLVKPGGSLKLSCAASRFTFSNYGMSWVRQTPDKRLEWVATISSGGRYTYYPDSVKGRFTISRDNAKNTLYLQMSSLRSEDTAMYYCARDYLYAMDYWGQGTSVTVSS
VL: DVVMTQTPLSLPVSLGDQASISCRSSQSLVYSNGNTYLHWYLQKPGQSPKVLMYKVSNRFSGVSDRFSGSGSGTDFTLKISRVEAEDLGVYFCSQSTHVPLTFGAGTKLELK
Consider B2, for which, in test [3], the FACS (ratio +/-) was determined as 283. For the same molecule, the EC50 in test [4] was determined as 0.95 nM; in [5], 0.32 nM.

B3: LRP8-ML199.11H1.5B2 VH1/VL1A.15 (antibody, V domains shown)
VH: EVQLVESGGGLVKPGGSLRLSCAASRFTFSNYGMSWVRQAPGKGLEWVSTISSGGRYTYYPDHVKGRFTISRDNAKNSLYLQMNSLRAEDTAVYYCARDYLYAMDYWGQGTTVTVSS
VL: DVVMTQSPLSLPVTPGEPASISCRSSQSLVYSNENTYLHWYLQKPGQSPQVLMYKVSNRFSGVPDRFSGSGSGTDFTLKISRVEAEDVGVYFCSQSTHVPLTFGQGTKLEIK
As for B3, the concentration giving a half-maximal response (EC50) in test [6] was 3.2 nM.

B4: LRP8-ML199.11H1.5B2 VH1/VL1A.16 (antibody, V domains shown)
VH: EVQLVESGGGLVKPGGSLRLSCAASRFTFSNYGMSWVRQAPGKGLEWVSTISSGGRYTYYPDHVKGRFTISRDNAKNSLYLQMNSLRAEDTAVYYCARDYLYAMDYWGQGTTVTVSS
VL: DVVMTQSPLSLPVTPGEPASISCRSSQSLVYSTGNTYLHWYLQKPGQSPQVLMYKVSNRFSGVPDRFSGSGSGTDFTLKISRVEAEDVGVYFCSQSTHVPLTFGQGTKLEIK
B4 returned a 50% effective concentration (EC50) in [7] of 625 nM.

B5: LRP8-ML199.11H1.5B2 VH1/VL1A.18 (antibody, V domains shown)
VH: EVQLVESGGGLVKPGGSLRLSCAASRFTFSNYGMSWVRQAPGKGLEWVSTISSGGRYTYYPDHVKGRFTISRDNAKNSLYLQMNSLRAEDTAVYYCARDYLYAMDYWGQGTTVTVSS
VL: DVVMTQSPLSLPVTPGEPASISCRSSQSLVYSNKNTYLHWYLQKPGQSPQVLMYKVSNRFSGVPDRFSGSGSGTDFTLKISRVEAEDVGVYFCSQSTHVPLTFGQGTKLEIK
B5: the concentration for a half-maximal effect (EC50) in [8] amounted to 0.8 nM.

B6: LRP8-ML199.11H1.5B2 VH1/VL1A.17 (antibody, V domains shown)
VH: EVQLVESGGGLVKPGGSLRLSCAASRFTFSNYGMSWVRQAPGKGLEWVSTISSGGRYTYYPDHVKGRFTISRDNAKNSLYLQMNSLRAEDTAVYYCARDYLYAMDYWGQGTTVTVSS
VL: DVVMTQSPLSLPVTPGEPASISCRSSQSLVYSNLNTYLHWYLQKPGQSPQVLMYKVSNRFSGVPDRFSGSGSGTDFTLKISRVEAEDVGVYFCSQSTHVPLTFGQGTKLEIK
As for B6, the EC50 in [9] is 0.7 nM.

B7: LRP8-ML199.11H1.5B2 VH1/VL1A.19 (antibody, V domains shown)
VH: EVQLVESGGGLVKPGGSLRLSCAASRFTFSNYGMSWVRQAPGKGLEWVSTISSGGRYTYYPDHVKGRFTISRDNAKNSLYLQMNSLRAEDTAVYYCARDYLYAMDYWGQGTTVTVSS
VL: DVVMTQSPLSLPVTPGEPASISCRSSQSLVYSRGNTYLHWYLQKPGQSPQVLMYKVSNRFSGVPDRFSGSGSGTDFTLKISRVEAEDVGVYFCSQSTHVPLTFGQGTKLEIK
B7: the concentration for a half-maximal effect (EC50) in [10] stood at 24 nM.

B8: LRP8-ML199.11H1.5B2 VH1/VL1A.21 (antibody, V domains shown)
VH: EVQLVESGGGLVKPGGSLRLSCAASRFTFSNYGMSWVRQAPGKGLEWVSTISSGGRYTYYPDHVKGRFTISRDNAKNSLYLQMNSLRAEDTAVYYCARDYLYAMDYWGQGTTVTVSS
VL: DVVMTQSPLSLPVTPGEPASISCRSSQSLVYSPGNTYLHWYLQKPGQSPQVLMYKVSNRFSGVPDRFSGSGSGTDFTLKISRVEAEDVGVYFCSQSTHVPLTFGQGTKLEIK
As to B8, the EC50 in test [11] came out at 249 nM.

B9: LRP8-ML199.11H1.5B2 VH1/VL1A.20 (antibody, V domains shown)
VH: EVQLVESGGGLVKPGGSLRLSCAASRFTFSNYGMSWVRQAPGKGLEWVSTISSGGRYTYYPDHVKGRFTISRDNAKNSLYLQMNSLRAEDTAVYYCARDYLYAMDYWGQGTTVTVSS
VL: DVVMTQSPLSLPVTPGEPASISCRSSQSLVYSWGNTYLHWYLQKPGQSPQVLMYKVSNRFSGVPDRFSGSGSGTDFTLKISRVEAEDVGVYFCSQSTHVPLTFGQGTKLEIK
With B9, the EC50 in test [12] was 21 nM.

B10: BGK-7F7 (GENOVAC candidate clone of Table 17) (antibody, V domains shown)
VH: QVTLKESGPGILQPSQTLSLTCTFSGFSLSTYGLGVGWIRQPSGKGLEWLANIWWDDAKYYNPSLKNRLTISKDTSNNQAFLKIPNVDTADTARYYCARTTKPYYFDYWGQGVMVTVSS
VL: HFVLAQPNSVSTNLGSTVKLSCKRSTANIGSNYVNWYQQHEGRSPTTLIYRDDRRPDGVPDRFSGSIDRSSNSALLTINNVQTEDEADYFCQSYSSGINIFGGGTKLTVL
B10: the figures for the fold over IgG control in test [13], in test [17] and in test [18] were 6 fold, 5.3 fold and 3.5 fold, respectively. In addition, the fold over isotype control is 21.6 fold in [14], 27.4 fold in test [15] and 13.1 fold in [16].

B11: anti-LRP-8 BGK-2C8.8C antibody (antibody, V domains shown)
VH: EVQLVESGGGLVQPGRSLKLSCAASGFTVSDYYMAWVRQAPKKGLEWVASISYEGSSTYYGDSVKGRFTISRDNAKSILYLQMNSLRSEDTATYYCARPLRYYGYNYRFAYWGQGTLVTVSS
VL: DIQMSQSPPVLSASVGDRVTLSCKASQNIHKNLDWYQQKHGEAPKLLIYYTDNLQTGIPSRFSGSGSGTDYTLTISSLQPEDVATYYCYQYNSGPTFGAGTKLELQ
In the case of B11, the 50% effective concentration (EC50) was determined as 2.61 nM in test [19], 22 nM in test [5] and 4.4 µg/mL in [20].
